Results reported in patent US20220227882A1 (TRUSTEES OF TUFTS COLLEGE, published 2022).
Blank lines part the entries; values can stand above or below the molecule they belong to.

Tests used:
[1] = target: Full-length human ADAM8 on cells (HEK293-ADAM8 stable or transfected cells; also endogenous ADAM8 of breast cell lines and PDX tumors) (human) (UniProt P78325); assay: FACS, HEK293-ADAM8 cells, column 1 µg/ml, negative control
[2] = target: Full-length human ADAM8 on cells (HEK293-ADAM8 stable or transfected cells; also endogenous ADAM8 of breast cell lines and PDX tumors) (human) (UniProt P78325); assay: FACS, HEK293-ADAM8 cells, column 10 µg/ml, negative control
[3] = target: Full-length human ADAM8 on cells (HEK293-ADAM8 stable or transfected cells; also endogenous ADAM8 of breast cell lines and PDX tumors) (human) (UniProt P78325); assay: FACS, HEK293-ADAM8 cells, column 0.1 µg/ml, negative control
[4] = target: Recombinant human ADAM8 (rHuADAM8) ectodomain protein (aa 17-497), ACRO Biosystems AD8-H5223 (human) (UniProt P78325); assay: adhesion of α9β1 integrin CHO cells to coated rHuADAM8, antibody 20 µg/ml, vs isotype control IgG; mean ± S.D., n=3
[5] = target: Full-length human ADAM8 on cells (HEK293-ADAM8 stable or transfected cells; also endogenous ADAM8 of breast cell lines and PDX tumors) (human) (UniProt P78325)
[6] = target: T1, Recombinant human ADAM8 (rHuADAM8) ectodomain protein (aa 17-497), ACRO Biosystems AD8-H5223 (human, UniProt P78325 17-497); assay: ELISA on coated rHuADAM8, antibody 0 to 2.5 nM
T1 construct: Bought protein made in HEK293 cells; The protein clips off its own prodomain (aa 17-191); also called rhADAM8; immunogen
T1 sequence: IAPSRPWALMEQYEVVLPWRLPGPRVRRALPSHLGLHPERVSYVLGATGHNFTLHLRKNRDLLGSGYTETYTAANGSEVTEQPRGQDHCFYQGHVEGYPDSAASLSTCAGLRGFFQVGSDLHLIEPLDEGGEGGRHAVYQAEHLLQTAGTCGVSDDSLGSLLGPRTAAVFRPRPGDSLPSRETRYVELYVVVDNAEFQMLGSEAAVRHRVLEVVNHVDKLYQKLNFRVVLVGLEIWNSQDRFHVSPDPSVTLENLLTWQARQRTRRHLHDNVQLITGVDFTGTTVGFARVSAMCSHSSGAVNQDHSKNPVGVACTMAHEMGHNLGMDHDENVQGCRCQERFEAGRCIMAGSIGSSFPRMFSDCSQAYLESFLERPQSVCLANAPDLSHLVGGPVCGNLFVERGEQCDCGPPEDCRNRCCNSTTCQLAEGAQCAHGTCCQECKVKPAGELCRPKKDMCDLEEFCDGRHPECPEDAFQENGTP

[7] = target: Quenched fluorescent CD23 peptide (Biozyme, PEPDAB013m001)

Molecule: MAB1031 anti-ADAM8 antibody (R&D Systems)
% inhibition of α9β1 integrin binding to ADAM8 [4]: 63.4 % inhibition | % inhibition of CD23 cleavage (MP activity), HEK293 cells co-expressing CD23 and ADAM8, antibody 20 µg/ml [5]: 65.8 % inhibition | % inhibition of transendothelial migration of MDA-MB-231 cells through HUVEC, antibody 20 µg/ml [5]: 42.4 % inhibition

B1: chADP2-IgG1 (antibody, V domains shown)
VH: EVKLVESGGGLVQPGGSLSLSCAASGFSFPDYYMSWVRQPPGKALEWLGFIRDSANGYTTEYIASVKGRFTFSRDNSQSILYLQMNALRAEDSATYYCARYSRYYGMDYWGQGTSVTVSS
VL: SIVMTQTPKILLVSAGDRVTITCKASQTVNYDVAWYQQKPGQSPKPVIYFASNRYTGVPDRFTGSGFGTDFTFTISTVQAEDLAVYFCQQDYSAPWTFGGGTKLEIKR
notes: Mouse ADP2 VL and VH joined to germline human IgG1 CL and CH; made in CHO cells; also called chimeric ADP2
Kd [6]: 0.0366 nM

B3: Recombinant human ADAM8 (rHuADAM8) ectodomain protein (aa 17-497), ACRO Biosystems AD8-H5223 (protein)
chain: IAPSRPWALMEQYEVVLPWRLPGPRVRRALPSHLGLHPERVSYVLGATGHNFTLHLRKNRDLLGSGYTETYTAANGSEVTEQPRGQDHCFYQGHVEGYPDSAASLSTCAGLRGFFQVGSDLHLIEPLDEGGEGGRHAVYQAEHLLQTAGTCGVSDDSLGSLLGPRTAAVFRPRPGDSLPSRETRYVELYVVVDNAEFQMLGSEAAVRHRVLEVVNHVDKLYQKLNFRVVLVGLEIWNSQDRFHVSPDPSVTLENLLTWQARQRTRRHLHDNVQLITGVDFTGTTVGFARVSAMCSHSSGAVNQDHSKNPVGVACTMAHEMGHNLGMDHDENVQGCRCQERFEAGRCIMAGSIGSSFPRMFSDCSQAYLESFLERPQSVCLANAPDLSHLVGGPVCGNLFVERGEQCDCGPPEDCRNRCCNSTTCQLAEGAQCAHGTCCQECKVKPAGELCRPKKDMCDLEEFCDGRHPECPEDAFQENGTP
fluorescence released from a quenched CD23 peptide over 24 hr [7]: An increase in fluorescence was seen over time in samples with rHuADAM8, which was inhibited in the presence of the chelating agent EDTA

Further lines, results first:

MFI [1]: 3.2 MFI | MFI [2]: 4 MFI | MFI [3]: 3.3 MFI
Molecule: mIgG (antibody)

Kd [6]: 0.0795 nM
B2: chADP13-IgG1 (antibody, V domains shown)
VH: EVQLQQSGPEMVKPGTSVKISCKASGYTFTDYYINWVKQSHGKSLEWIGDISPNIGGATYNPKFKGKAILTVDKSARTAYMELRSLTSEDSAVYCCTRGGSSYPYFYAMDYWGQGTSVTVSS
VL: DIVMSQSPSSLAVSVGEKVTMSCKSSQSLLYSSNQKKYLAWYQQKPGQSPKLLIYWASTRESGVPDRFTGSGSGTDFTLTISSVKAEDLAVYYCQQFYSYPYTFGGGTKLEIKR
notes: Mouse ADP13 VL and VH joined to germline human IgG1 CL and CH; made in CHO cells; also called chimeric ADP13
